For 167 variants, self-cleavage results are on record in the RNAGym collection of RNA variant scans (doi:10.7554/elife.90254).

First the molecules themselves.
B1: OR4K15 (parent)
chain: GUUAACGGUCAUAGGCCAUGGAAACUAGGAGCACCAUUUCGCUGCCAGUGAAGAAAUGAACAAAGAAAAUCUGGGCCAGGCAGGCAUCAAAAGAAAUAGUCUUGCGCUCAACCAGAAAGUCUGUAAUCAUUUUAAGGGUA

Variants of B1 are the subject of this data set. Briefly: self-cleavage, relative activity (ratio to wild type); higher = more cleavage; in vitro, sequencing; the parent is a self-cleaving ribozyme.
Regarding U49C A114G, the self-cleavage was 0.42. The figure for U49C A114C is 0.03; for A51G U57C it is 0.93; for U49C U139A it is 1.15. The figure for G50A U87A is 1.75.

On to U49G U102C, for which the self-cleavage came out at 1.95. The figure for A52G A64C is 2.64; for A52G A64G it is 0.9. For the variant A52G A64U, the self-cleavage turned out to be 0.82. The value for A51G U131G was 1.08. Regarding A51G U131C, the self-cleavage came out at 1.25. Turning to A52C A118G, the self-cleavage was determined as 0.72.

As to U49G A54G, the self-cleavage amounted to 1.61. The value for A51G A129G was 1.11; that for A51G A129C was 0.98. The figure for A52G C105A is 0.02. The value for U49C U103A was 0.71; that for A51U U100C was 2.13; that for A51G U139A was 1.48. On to G50A A52G, for which the self-cleavage was found to be 2.63.

Regarding A51G A91U, the self-cleavage is 1.61. The figure for A51U A125U is 1.64; for A51U A125G it is 0.42; for A52G A59U it is 1.28. A52G A59G: the self-cleavage worked out at 1.13.

For U49C A63G, the self-cleavage came out at 1.75.

Take A52G A140G: the self-cleavage came to 1.63. The figure for A52G A140U is 1.15. For A52G A117C, the self-cleavage was found to be 0.47. A52G A117G: the self-cleavage came to 1.48. The figure for A52G U127A is 1.73; for A51G A54U it is 1.4; for A51G A62G it is 0.33.

Regarding A51G A62C, the self-cleavage was 1.58.

With A51C U127C, the self-cleavage worked out at 1.02.

Take A51C U127A: the self-cleavage was 2.59. A51G U108C: the self-cleavage amounted to 0.02.

For U49C A59C, the self-cleavage was found to be 0.9. The value for U49C A59G was 0.7; that for U49C A59U was 1.24; that for U49C G137U was 2.29. The value for U49C G137A was 1.95.

In the case of A52G U120A, the self-cleavage came to 2.19. For the variant A51U, the self-cleavage worked out at 1.5. The figure for A51G is 1.36; for A51C it is 1.43; for G50U A66U it is 2.16. With G50A A60C, the self-cleavage was 1.9. The figure for A51G A55C is 0.42; for A52G A110G it is 0.17; for A51G A64U it is 1.75. The figure for A51G A64G is 1.42.

As for U49C U97A, the self-cleavage is 2.12. As to U49G U108C, the self-cleavage stood at 0.01. The value for U49C G79A was 0.13; that for A52U A64G was 1.71. The figure for A51U A62G is 1.48.

As to A51U A62U, the self-cleavage was 1.15. Regarding A52G G106C, the self-cleavage was 0.02.

Consider A52G G106A, for which the self-cleavage was 0.01. The figure for A51G A111G is 0.03; for A51G G83A it is 1.42. The value for A51G G83U was 0.7. For the variant A51G A117U, the self-cleavage worked out at 0.52. Regarding A51G A117G, the self-cleavage stood at 2.07. With A52G A56G, the self-cleavage was found to be 0.76. For G50A U133C, the self-cleavage is 1.88. The value for A51G G84A was 1.78; that for A52G U87A was 1.23; that for A52G U87C was 1.35. As to A51G A126G, the self-cleavage was 0.71.

With A51G A66G, the self-cleavage worked out at 1.5.

As for A52U A94G, the self-cleavage worked out at 1.52. Turning to A51C A117U, the self-cleavage amounted to 1.28.

For A52G U72C, the self-cleavage came to 0.27. In the case of G50A G138A, the self-cleavage came out at 1.51.

Consider A52G A54G, for which the self-cleavage amounted to 1.41. The figure for U49C C128A is 1.11. The figure for U49C A60G is 1.24; for A51U A95G it is 2. As to G50U A51U, the self-cleavage is 1.95. Regarding A52G U97C, the self-cleavage stood at 1.07. The value for A52G U97A was 1.33; that for A52G U97G was 1.31; that for A51U U132C was 1.06. A51U U132G: the self-cleavage stood at 1.49. In the case of A51U G58U, the self-cleavage was 1.45. The value for A52U A82G was 1.09. The value for A52U A82U was 0.2; that for A52C A117G was 1.22; that for A51C A95U was 1.79. The figure for A51C A95G is 1.65. On to U49C G75A, for which the self-cleavage is 0.04. In the case of A52G A118U, the self-cleavage came to 0.59. For U49C U72A, the self-cleavage turned out to be 0.15. The figure for A51U A63G is 1.62; for G50A A63G it is 1.21. A51G C128U: the self-cleavage was 2.26. The value for A51G U122A was 1.85; that for A52C A129G was 0.62; that for A51C A67G was 0.66. As for U49G A118G, the self-cleavage stood at 1.14. U49G A60G: the self-cleavage came to 0.64. In the case of A51U U127A, the self-cleavage is 1.75. The value for A51U U127C was 0.76. As for U49C U108A, the self-cleavage was found to be 0.01. The figure for A52C U131C is 1.53; for A51G A96U it is 0.46. The value for U49C C76U was 0.07; that for U49C A135U was 2.28; that for A52G A69U was 1.25. The figure for A51G C77U is 1.46; for A52G A91G it is 1.01. Consider A51G G136A, for which the self-cleavage was 2.

Take U49G A69G: the self-cleavage was found to be 0.88. The figure for A52G C121A is 2.07; for A51C U72A it is 0.19; for U49C U87A it is 2.09. The value for A52G A92G was 1.34; that for A52G A92U was 1.52; that for U49G U122C was 0.39. For U49G U122A, the self-cleavage came out at 1.35. The figure for G50U A116G is 0.75; for A51G C61G it is 0.99; for A52G C112U it is 0.01.

Regarding A51G A110G, the self-cleavage came out at 0.08. The figure for A51G C76A is 0.07. The figure for A52G A62C is 1.53.

Regarding A52G C88A, the self-cleavage came out at 1.78. Consider A51G U100A, for which the self-cleavage amounted to 0.56. In the case of A51G U100C, the self-cleavage was 1.87. A52G A86C: the self-cleavage worked out at 0.77.

On to A52G A86U, for which the self-cleavage is 1.33. The value for A52G C113U was 0.14; that for A51U A82G was 0.68; that for G50A U108A was 0.01. As to U49C A134U, the self-cleavage was found to be 1.2. Regarding U49C G104A, the self-cleavage stood at 0.04. The value for A52G A129C was 0.65. As to A51G U130A, the self-cleavage was determined as 1.63. The figure for A51G U130G is 0.67; for A51G G73A it is 0.26; for U49G A68G it is 1.76. With U49G A116G, the self-cleavage worked out at 0.64. The value for A52C A90G was 0.58; that for A52C A91G was 1.96; that for A51G A135U was 0.7.

In the case of A51G U133G, the self-cleavage stood at 1.24. On to A51G U133A, for which the self-cleavage was determined as 1.15. With A52G G80U, the self-cleavage turned out to be 0.12. The figure for G50U U124A is 0.91; for U49C A64G it is 2.02; for U49C U122G it is 1.54. Regarding U49C U122A, the self-cleavage came out at 1.33.

For A51G C105U, the self-cleavage was found to be 0.12. The value for A51G A114G was 1.1; that for A52G A60C was 0.73; that for G50C A116G was 0.9. The figure for A51U U120C is 0.47.

As for U49G A66G, the self-cleavage came out at 1.77. The figure for A51U A66G is 2.03; for U49G U139A it is 1.7. The figure for U49G U139C is 1.49; for U49G U139G it is 1.58; for U49C C105A it is 0.03. The value for A52U A63G was 1.73; that for U49C A126G was 1.26.
